Residue numbers refer to the chain shown, from its start. Names may count otherwise.

This note sets out measurements from publication PMC2761027.

Substrate in data set [1]: Nc1ncnc2c1ncn2[C@@H]1O[C@H](COP(=O)(O)OP(=O)(O)OP(=O)(O)O)[C@@H](O)[C@H]1O
The data set can be described thus: purified protein. Format: biochemical, Mycolicibacterium smegmatis. The settings on record: salmon sperm DNA, 5 mM MgCl2, pH 8.0, 37 °C, labelled compound.

Substrate in data set [2]: O=c1ccn([C@@H]2O[C@H](COP(=O)(O)OP(=O)(O)OP(=O)(O)O)[C@@H](O)[C@H]2O)c(=O)[nH]1
The data set is described as follows: labelled UDP formation from labelled UTP, TLC, Michaelis-Menten fit. It is filed as biochemical, Mycolicibacterium smegmatis. Particulars: salmon sperm DNA, 5 mM MgCl2, pH 8.0, 37 °C, labelled compound.

B1: UvrD1 (Mycolicibacterium smegmatis MC2 155) (protein)
chain: MTSPSATPFAAETDQLLDGLNPQQRQAVLHEGSPLLIVAGAGSGKTAVLTRRIAYLLAEREVGVGQVLAITFTNKAAAEMRERVVQLVGPRAKAMWVSTFHSTCVRILRNQASLLPGLNSNFSIYDSDDSRRLLMMIGKDLGLDTKRYSPRLLANGISNLKNELIGPEQAAAEASEASDEMATVIAQVYGEYQRRLRAANALDFDDLIGETVAVLQAFPQIAQYYRRRFRHILVDEYQDTNHAQYVLVRELVGHHLEDHDGVPPSELCVVGDADQSIYAFRGATIRNIEDFERDFPDATTILLEQNYRSTQTILNAANAVIARNTGRREKRLWTDAGQGELIVGYVADNEHDEARFVADEIDALTDRHGYNYNDIAVFYRTNNSSRALEEVFIRAGIPYKVVGGVRFYERREIRDIVAYLRVLDNPGDSVSMRRILNTPRRGIGDRAEACVAVYAENTGVSFNEALQAAAEGRVPMLNTRSEKCIASFVQMLDDLRGKLDEELGDLVEAVLERTGYRRELEASSDPQDLARLDNLNELVSVAHEFSIDLANAQALAEESDEPVDEDIPDTGVLAQFLERVSLVADADDIPEEGSGVVTMMTLHTAKGLEFPAVFVTGWEDGMFPHMRALGDPNELSEERRLAYVGITRARQRLYLSRAKVRSSWGQPMLNPESRFLREIPQELIDWRRIEAPTPAYAAPGRMSSSGGGGIGFGSPRPSPNRPGGGRNKPLMVLQPGDRVTHDKYGLGRVEEVAGTGESAMSLIDFGSAGRVKLMHNHAPLQKL
In general, Km refers to the substrate concentration at which the rate is half of its maximum. Broadly, the kcat is the maximal rate divided by the concentration of active sites. In the case of B1, in data set [1], the Km was 260 ± 40 µM and the kcat was found to be 265 ± 22 s⁻¹.

B2: UvrD1 (Mycolicibacterium smegmatis MC2 155; Q24A) (protein)
chain: B1 chain with Q24A
Turning to B2, the Michaelis constant (Km) in data set [1] came to 690 ± 50 µM; in data set [2], 1210 ± 130 µM. Further, the kcat in data set [1] was found to be 95 ± 3 s⁻¹; in data set [2], 86 ± 5 s⁻¹.
